The record followed here is patent US20230112123A1.

Experiment [1] concerns the target human CD70 (human) (UniProt P32970). Nature of the experiment: FACS binding; Raji cells.
For experiment [2] the target is unchanged. Briefly: FACS binding; U266 cells.
The target is the same in experiment [3]. Briefly: FACS binding; CHO-CD70 cells. (In general: Flow cytometry measures light scatter and fluorescence of single cells or particles in a stream.)

Usually EC50 stands for the concentration at which the effect is half-maximal. Low values mean greater potency, high ones weaker potency.

Chain of human CD70 (human) (P32970 whole entry): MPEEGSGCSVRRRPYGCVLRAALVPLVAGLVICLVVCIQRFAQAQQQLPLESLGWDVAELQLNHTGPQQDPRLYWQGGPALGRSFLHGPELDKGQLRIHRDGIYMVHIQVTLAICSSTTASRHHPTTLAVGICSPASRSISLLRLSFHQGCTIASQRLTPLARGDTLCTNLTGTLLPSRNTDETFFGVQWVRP

For the substance Cusatuzumab, the EC50 with human CD70 (human) [1] was 2.16 nM; in the experiment with human CD70 (human) [2], 0.671 nM.

As to IMM40C, the EC50 with human CD70 (human) [2] worked out at 0.0715 µg/mL; in the experiment with human CD70 (human) [3] it was 0.501 µg/mL.
